According to the nanobody polyreactivity screen of Harvey et al. (2022):

Assay: yeast display, Sf9 membrane polyspecificity reagent, FACS + sequencing; frameworks hold sequencing errors
Outline: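 A synthetic nanobody library was expressed on Saccharomyces cerevisiae BJ5465 by galactose induction for 36–48 hours. The library was stained for 1 hour at 4 °C with 10% biotinylated, detergent-solubilized Sf9 membrane reagent and enriched with streptavidin microbeads before FACS. Low and high (top ~1%) gates were set on anti-HA fluorescence for expression and streptavidin fluorescence for reagent binding, and each polyreactivity label reflects the gate of origin.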

Sequence | polyreactivity (PSR sort gate)
QVQLVESGGGLVQAGGSLRLSCASSGSTLYDNAKGWYRPAPGKERELVAAISKSGGRTYYADSVKGRFTISRDNAKNSVYLQMNSLKPEDTAVYYCNDVSSGGDYNYWGQGTQVTVSS | high polyreactivity
QVMLVESGGGLVQAGGSLRLSCAASGSTFEYYAMGWYRQAPGKERELVATISIDGRTNYADSVKGRFTISRDNAKNTVYLQMNSLNPEDTAVYYCGKRVVVWYFGTGDYWGQGTQVTVSS | low polyreactivity
QVQLVESGGGLVQAGGSLRLSCAASGRIFNSNAMGWYRQAPGKERELVAAISWSGGTTYYADSVKGRFTISRDNAKNTVYLQMNSLKPEDTAVYYCNADLWTSYFGRGDYWGQGTQVTVSS | low polyreactivity
QVELVESAAGLVQAGASLRLSCAASGTTIKSYVMGWYRQPPGKETELVAAISSGDSTYYADSVKGRFTISRDNAKNTVYLQMNSLNPEDTAVYYCAADPCYSVEPWEDDYWGQGSQVTVSS | low polyreactivity
QVHLVESGGGLVQAGGSLRLSCDASGSIFTYYAIGWYRPAPGKERELVAAITNGVDSTYYADSVKGRFTISRDNAKNTVYLQINSLKPEDTAVYYCNADTVVEWFSPSREYDYWGQGTQVTVSS | low polyreactivity
QVQLVESGGGLVKAGGSLRLSCAASGRIFKIYAMGWYRQAPGKERELVAAISGRGGSTYYADSVKGRFTISRDNAKNTVYLQLNSLKPEDTAVYYCAAVGYGFSAYSTYDYWGQGTQVTVSS | high polyreactivity
QVQLVESGGGLVQAGGSLRLSRAASGFIFRVYAMGWYRQAPGKERELVAAITGNGVSTYYADSVKGRFTISRDNAKNTVYLQMNSLKPEDTAVYYCATYGRRWYSSRRLDYWGQGTQVTVSS | low polyreactivity
QVQLVESGGGLVQAGGSLRLSCAASGFTFVRYAMGWYTQAPGKERELDAAITRGGGSTYYADSVKGRFTISRDYAKNTVYLQMNSLKPEDTAVYYCAKGPGRPVSYEIPYKYNYWGQGTHVTVSS | high polyreactivity
QVQLVESGGGLVQAGGSLRLTCAASGRIFPVYAMGWYRQAPGKERELVAAISGSGGSTYYADSVKGRFTISRDNAKKSVYLQMNSLKPEDTAVYYCAAVTTPRFSIGYEYWGQGTQVTVSS | low polyreactivity
QVQLVESGGGLVQAGGSLRLSCAASGYTFNYYAMGWSRQAPGKEREFVASTYADSVKGRFTISRDNAKNTVYLQMNSLKPEDTAVYYCAAEGSYPAYDYWGQGTQVTVSS | low polyreactivity
QVQLVEAGGRLVQAGGSLRLSCAASGSIFYRNAMGGYRQKPGKEMELVAVITRRGGRKYYADSVKGRITISRDNAKNTVYLQMNSLIPEDTAVFYCAKRGWSDYNPIDYWGQGTPVTVSS | low polyreactivity
QVQLVESGGGLVQAGGSLRLSCAASGSIFGYNTMGWYRQAPGKERELVATITRGGSTHYADSVKGRFTISRDNAKNTVYLQMNSLKPEDTAVYYCAATRLSYVRLYRFSQQYYYWGQGTQVTVSS | high polyreactivity
QVQLVESGGGLVQAGGSLRLSCAASGRTFEPNDMGWYRQAPGKERELVAAISSSDGSTYYADSVKGRFTISRDNAKNTVYLQMNSLKPEDTALYYCAADAGYLYDWPYNYYYWGQGTQVTVSS | low polyreactivity
QVQLVESGGGLVQAGGSLRLSCAASGSISLYAMGWYRQAPGKERELVAAITKSGGSTYYADSVKGRFTISRDNAKNTVYLQMNSLKPEDTAVYYCNRGGGERKYNYWGQGTQVTGSS | high polyreactivity
QVQLVESGGGLVQAGGSLRLSCAATGRIFYGYAMGWYRQAPVKERELVAAITRGVSTYYADSVKGRFTISRDNAKNTVYLQMNSLKPEDTAVYYCAIERRVRMDSWGQGTQVTVSS | low polyreactivity
QVQLVDSGGGLVQAGGSLRVSCAASGLIFTRNAMGWYRPAPGKERELVAAISSSGGSTYYADSVKGRFTISRDNAKNTVYLQLNSLKPEDTAVYYCATDAAYLFTAYDYWGQGTQVTVSS | low polyreactivity
QVQLVESGGGLVQAGGSLRLSCAASGYIFDVNTMGWYRQAPGKERELFAAITSGGTTYYADSVKGRFTISRDNAKNTVYLQMNSLKPEDTAVYYCAARRYPFEYDYWGQGTQVTVSS | high polyreactivity
QVQLVESGGGLVQAGGSLRLSCAASGRIFRYNIMGWYRPAPGKERELVAAIRQIGGSTYYADSVKGRFTISRDNAKNTVYLQMNSLKPEDTAVYYCAADSTVEATPFFVEYDYWGQGTQVTVSS | low polyreactivity
QVQIVESGGGLVQAGGSLRLSCPASGSIFPQYAMGWSRQAPRKERELVAGISGSGGGTYYADSVKGRITILRDNAKNNVFLQMNSVKPEETAVYYCNALYAPYGWFYGLYDYGGQGTQVTVSS | low polyreactivity
QVQLEESGLGLVQAGGSLRLSCAASGFTFYGNAMGSYRKAPGKEREFVAAISSSGASTRYADSVKGRFTISRDNAKNTVYLQMYSLKPEDTAVYYCAADAPAWILEAYGYWGQGTQVTVSS | low polyreactivity
QEQLQEIGGRLEQAGGSLRLSCAASGYITYIGTMGWYRHAPGKEREFVATIVVGSTTNYADSVKGRFTISRDNAKNTVYLQPESGRYRGVLLRGWLLAVGKFTYWGQGTQETVSS | low polyreactivity
QVQLVESGGGLVQAGGSLRLSCAASGFTLSSYVMGWYRQAPGKERELVAAITSSGGSTYYADSVKGRFTISRDNAKNTVYLQMNSLKPEDTAVYYCNAVWWYKLYFDDDYWGQGTQVNVSS | high polyreactivity

Sequence | polyreactivity (PSR sort gate)
QVQLVESGGGLVQAGGSLRLSCAASGNFFVLYAMGWYRQAPGKERELVASITSDGITYYADSGKGRFTISRDNAKNTVYLQMNSLKPEDTAVYYCAVDRSYRYLPRGDYWGQGTQVTVSS | low polyreactivity
QVHLVESGGGLVQAGGSLRLTCAASGRTFGRYAMGWYRQAPGKERELVAAIRYTGGSTYADSVKGRFTISRDNAKNTVYLQMNSLKPEDTAVYYCNRGGAFNTRNEITRYGYWGQVTQVTVSS | low polyreactivity
QVQLEESGGGLVQAGGSLRLSCAASGRIFVSNAMGWYRQAPGKERELVAAITDSGGSTYYADSVKGRFTISRDNAKNTVYLQMNSLKPEDTAVYYCATRTLFRYPNYGNNLWGYDYWGLGTQVTVSS | low polyreactivity
QVQLVESGGGLVQAGGSLRLSCAASGSTFPGNAMGWYRQAPGKERELVAAITSTGTTYYADSVKGRFTISRDNAKNTVYLQMNSLKPEDSAVYYCNADRYPDPSTFDYWGQGTLVTVSS | low polyreactivity
QVHLVESGGGLVQAGGSLRLSCAASGRILPFYAMGWYRQAPGKERELVATISWTSDSTYYADSVKGRFTISRDNAKNTVYLQMNSLKPEDTAVYYCAREYTYTYASTVIYDHWGQGTQVTVSS | low polyreactivity
QVQLVESGGGLVQAGGSLRLSCAASGSICDDYAMGWYRQAPGKEWELVAAISSSGTSTYYADSVKGRFTISRDNAMYTVYLQMNSLKPEDTAVYYCSARSAILISGYLMDYWGQGTQVTVSS | low polyreactivity
QVQLVESGGGLVQAGGSLRLSCAASGRIFTDYAMGWYRQAPGKERELVASITERGGSTDYADSVKGRFTISRDNAKITVYLQMNSLKPEDTAVYYCNARDVTLWEDVYQQDGSGSWGLGTQVTVSS | low polyreactivity
QVQLVESGGGIVQAGGSLRLSCAASGIIFWNYAMGWYRQAPGKERELVAAITDGGSTYYADSVKGRFTISRDNEKNTVYLQMNSLKPEDNAVYYCNTDWAYLSDYWGQGTQVTVSS | low polyreactivity
QVQLVESGGGLVQAGGSLRLSCAASGYIFTSYAMGWYRQAPGKERELVATITTGGSTYYADSVKGRFTISRDNAKNTVYFQMNSLKPEDTAVYYCNAVLHGWYDYWGQGTQVTVSS | low polyreactivity
QVQLVESGGGLVQAGGSLRLSCAASGTFYLYAIGWYRQAPGNERELVAALTRGGSTNYADSVKGRFTISRDNAKNTVDLQMNSLKPEDTAVYYCAAGSSRVFRKAGITRPSGLYYYWGQGTQVTVSS | high polyreactivity
QVQLVESGGGLVQAGGSLRLSCAASGRTIKYTAMGWYRQAPGKERDLVAAITYSGGSTYYADSVKGRFTISRDNAKNTVYLQMNSLKPEDTAVYYCGQGTQVTVSS | low polyreactivity
QVQLVESGGGLVQAGGSLRLSCAASGRIFGRNARGWYRQAPGKEREFVAAISGNGGSTYYADSVKGRFTISRDNAKNTVYLQMNSLKPEDTAVYYCATKYFSRMDYWGQGTQVTVSS | high polyreactivity
QVQHVESAGALVQAGGSLRLSCAASRRTFYRYPMGWYRQAPGKERELVAAISSNGGSTYYADSVKGRFTISRDNGKNTVYLQMNSLKPEDTAVYYCYYYNSRLFDYWGQGTQVTVSS | high polyreactivity
QVQLVESGGGLVQAGGSLRLSCAASGSTFTYNTMGWYRQAPGQERELVAAISSGGSTYYADSVKGRFTFSRDNAKNTVSLQMNSLKPEDTAVYYCAARSRYGESPGYYWGQGTQVTVSS | high polyreactivity
QVQLVESGGGLVQAGGSLRLSCAASGSTFIKNAMGWYRQAPGKERELVAAINNSGSRTYYADSVKGRFTISRDNAKNTVYLQMNSLKPEDTAVYYCAAGRTYGMGYWGQGTQVTVSS | high polyreactivity
QVQLVESGGGLVQAGGSLRLSCAASGRTIDWYAMGWYRQAPGKVRELVAGITYSGGSTYYADSVKGRFTISRDIANKTVYFQMNSLKPEDTAVYYCAAAKSYRSGSWYEYWGQGTQVTVSS | high polyreactivity
QDQLVESGAGLVQAGGSLRLSCAASGRIFDRYAMGWYRQAPGKEREMVAAITTSSGGSTYYADSVKGRFTISRDNAKNTVYLQMHSLKPEDTAVYYCAADRRYNVIGEFGYWGQGTQVTVSS | low polyreactivity
QVQLVESGGGLVQAGGSLRLRCAASGRTFAVYAMGWYRQAPGKERELVAAITLGASRTYYADSVKGRFTISRDNAKNTVYLQMNSLKPEDTAVYYCAVTWGARTDQWSLRVFVGYDYWGQGTQVTVSS | low polyreactivity
QVQLVESGGGLVQAGGSLRLSCAASGLTFDANAMGWYRQAPGKERELVATITSGGSTNYADSVKGRFTISRDNAKNTVYLQMNSLKPEDTAVYYCARGTSTGTYYWYGYWGHGTQVTVSS | low polyreactivity
QVQLVESGGGLVQAGGSLRLSCAASGFIFGTYAMGWYRQAPGKEREFVAAITTSGSSTRYADSVKGRFTISRDNAKNTVYLQMNSLKPEDTAVYYCAARNRTFFQPTYYYWGQGTQVTVSS | high polyreactivity
QVQLVESGGGLVQAGGSLRLSCAASGIIFFRYAMGWYRQAPGKERELVAGISGSGGSTYYADSVKGRFTISRDNAKNTVYLQMNSLKPEDTAVYYCAKQWKSNIYYQGGYWGQGTQVTVSS | high polyreactivity
